Measured values as given in PMC8565817.

Experiments:
Bemarituzumab (human) = experiment: SPR
[1] = molecular target: FPA144-F (the fucosylated version of bemarituzumab) (human); experiment: SPR

- Kd (Bemarituzumab (human)): 9.2 nM
- Kd [1]: 207 nM
Substance: human Fc gamma receptor IIIa (V158)
